Assay results as given in US6558950 (MCGILL UNIVERSITY, dated 2003).
Values belong to the binder of their own block, whether it stands above or below them. No end group written: not given here.

Experiments:
32P-Bcl-2Δc21/his6/HMK [1] = target: T1, 32P-Bcl-2Δc21/his6/HMK (human, UniProt P10415 1-218, 32P-labelled with heart muscle kinase and 32P-gamma-ATP at the C-terminal HMK recognition sequence (arg-arg-ala-ser)); assay: Far Western blot of reverse phase HPLC fractions (FIG. 2B)
T1 construct: range 1-218; Expressed in E. coli from the pTrchis vector; a soluble mixture of monomers and dimers at pH 7.4; also called 32P-labelled Bcl-2 cytosolic domain probe
Experimental: Aliquots of fractions eluted from the gel were assayed by ^32P-Bcl-2Δc21/his6/HMK Far Western blotting analysis, and the radioactive bands corresponding to p20 and p21 Bax were detected and quantified by Phosphorimager. The levels relative to the maximal signal detected (set at 100) were plotted as a bar graph (upper panel). […] The positions of molecular mass marker proteins are indicated. The black bars on the graph indicate p20. The white stippled bars on the graph indicate p21 Bax. Figure 2B: FIG. 2B is a reverse phase HPLC analysis ($A280$ profile; upper panel) and corresponding graph (lower panel) showing proteins eluted between 190 and 220 ml from the preparative SDS PAGE of FIG. 2A. Equal aliquots from all fractions were assayed for ^32P-Bcl-2Δc21/his6/HMK interacting protein by Far Western blotting analysis, for which only p20 was detected. Amounts relative to the maximal signal detected (set at 100) were plotted as a bar graph (lower panel). […]
Identification of the p20 Bcl-2-binding polypeptide was obtained by NH_2-terminal peptide sequence analysis of p20 following its isolation by a combination of differential solubilization in detergent, preparative SDS PAGE, and reverse phase HPLC (FIGS. 2A and 2B). […] One candidate sequence emerged, and was the only sequence that was detected in the peak fraction of Bcl-2 binding activity (fraction 54, FIG. 2B).

32P-Bcl-2Δc21/his6/HMK [2] = target: T1, 32P-Bcl-2Δc21/his6/HMK; assay: Far Western blot of purified GST fusion proteins
[3] = target: T2, Bax (transfected, 293T cells) (UniProt Q07812 1-192, limits assumed); assay: anti-Flag co-immunoprecipitation, anti-Bax Western blot
T2 construct: Detected with rabbit anti-Bax sc-526; also called the pro-apoptotic member of the Bcl-2 family
Experimental: After centrifugation at 11,000 g, the supernatant was incubated with 50 µl of a 1:1 slurry of protein G Sepharose for 1 hour at 4° C. The Sepharose was removed and the supernatant incubated with mouse M2 anti-Flag antibody (IBI-A Kodak Co., New Haven, Conn.) at 4° C. for 6–8 hours, at which time 20 µl of a 1:1 slurry of proteinG Sepharose was added. After 1 hour at 4° C., the beads were recovered, washed, and boiled in SDS sample buffer. Following SDS PAGE and transfer to nitrocellulose, blots were developed with either mouse anti-Myc 9E1D antibody or mouse anti-HA 12CA5 antibody (both from Babco, Berkeley, Calif.) or rabbit anti-Bax sc-526 antibody (commercially available from Santa Cruz Biotech., Inc., Santa Cruz, Calif.).

[4] = target: T3, 35S-labelled transcription-translation product of p28 Bap31 cDNA
T3 chain: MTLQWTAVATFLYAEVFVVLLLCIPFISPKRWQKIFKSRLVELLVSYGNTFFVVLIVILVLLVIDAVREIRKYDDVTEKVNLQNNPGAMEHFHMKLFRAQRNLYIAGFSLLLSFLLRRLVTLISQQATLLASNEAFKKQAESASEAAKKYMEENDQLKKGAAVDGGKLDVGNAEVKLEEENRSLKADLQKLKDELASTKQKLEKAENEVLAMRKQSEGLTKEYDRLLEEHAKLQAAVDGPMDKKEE

T1 sequence (P10415 other isoform, or with tags, fused parts or gaps mutant limits assumed): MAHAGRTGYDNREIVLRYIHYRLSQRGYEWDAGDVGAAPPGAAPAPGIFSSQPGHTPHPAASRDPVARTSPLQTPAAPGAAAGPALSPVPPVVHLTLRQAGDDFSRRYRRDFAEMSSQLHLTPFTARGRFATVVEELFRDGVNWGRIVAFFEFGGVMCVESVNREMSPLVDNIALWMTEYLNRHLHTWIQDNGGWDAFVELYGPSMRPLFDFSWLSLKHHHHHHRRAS
T2 sequence (Q07812 whole entry): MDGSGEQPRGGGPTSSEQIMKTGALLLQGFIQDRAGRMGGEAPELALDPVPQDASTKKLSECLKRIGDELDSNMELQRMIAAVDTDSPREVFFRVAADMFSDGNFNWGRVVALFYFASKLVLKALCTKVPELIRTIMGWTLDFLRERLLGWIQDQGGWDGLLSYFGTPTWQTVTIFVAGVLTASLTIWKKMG

B4: GST-p28 (122-164) (other)
chain: LISQQATLLASNEAFKKQAESASEAAKKYMEENDQLKKGAAVD
modifications: also: GST fusion
notes: Expressed in E. coli and purified on glutathione Sepharose; not shown: glutathione S-transferase encoded by pGEX-2T (Pharmacia)
binding result (32P-Bcl-2Δc21/his6/HMK [2]): no binding

B5: CPP32 (caspase-3) (protein)
chain: SGISLDNSYKMDYPEMGLCIIINNKNFHKSTGMTSRSGTDVDAANLRETFRNLKYEVRNKNDLTREEIVELMRDVSKEDHSKRSSFVCVLLSHGEEGIIFGTNGPVDLKKITNFFRGDRCRSLTGKPKLFIIQACRGTELDCGIETDSGVDDDMACHKIPVEADFLYAYSTAPGYYSWRNSKDGSWFIQSLCAMLKQYADKLEFMHILTRVNRKVATEFESFSFDATFHAKKQIPCIVSMLTKELYFYH
cleavage of 35S-labelled p28 Bap31 in vitro (SDS-PAGE) [4]: little reactivity was observed for caspase-3 over a wide range of enzyme concentration

B6: FLICE (caspase-8) (protein)
chain: SESQTLDKVYQMKSKPRGYCLIINNHNFAKAREKVPKLHSIRDRNGTHLDAGALTTTFEELHFEIKPHDDCTVEQIYEILKIYQLMDHSNMDCFICCILSHGDKGIIYGTDGQEAPIYELTSQFTGLKCPSLAGKPKVFFIQACQGDNYQKGIPVETDSEEQPYLEMDLSSPQTRYIPDEADFLLGMATVNNCVSYRNPAEGTWYIQSLCQSLRERCPRGDDILTILTEVNYEVSNKDDKKNMGKQMPQPTFTLRKKLVFPSD
p20 cleavage product quantitated on a Phosphorimager [4]: p28 Bap31 was more sensitive to cleavage by FLICE (caspase-8) than ICE (caspase-1)

Continued, values first:

binding result (32P-Bcl-2Δc21/his6/HMK [1]): binds
B1: p20 cleavage product of p28 Bap31 (other)
chain: MTLQWTAVATFLYAEVFVVLLLCIPFISPKRWQKIFKSRLVELLVSYGNTFFVVLIVILVLLVIDAVREIRKYDDVTEKVNLQNNPGAMEHFHMKLFRAQRNLYIAGFSLLLSFLLRRLVTLISQQATLLASNEAFKKQAESASEAAKKYMEENDQLKKGAAVD
notes: Endogenous product in apoptotic human KB cells, on SDS-PAGE blots; also called cleavage product "b"

binding result (32P-Bcl-2Δc21/his6/HMK [2]): binds
B2: GST-p28 (1-164) (other)
chain: MTLQWTAVATFLYAEVFVVLLLCIPFISPKRWQKIFKSRLVELLVSYGNTFFVVLIVILVLLVIDAVREIRKYDDVTEKVNLQNNPGAMEHFHMKLFRAQRNLYIAGFSLLLSFLLRRLVTLISQQATLLASNEAFKKQAESASEAAKKYMEENDQLKKGAAVD
notes: Expressed in E. coli and purified on glutathione Sepharose; also called GST-p20; not shown: glutathione S-transferase encoded by pGEX-2T (Pharmacia)

binding result [3]: no binding
B3: Flag-tagged p28 Bap31 (other)
chain: MTLQWTAVATFLYAEVFVVLLLCIPFISPKRWQKIFKSRLVELLVSYGNTFFVVLIVILVLLVIDAVREIRKYDDVTEKVNLQNNPGAMEHFHMKLFRAQRNLYIAGFSLLLSFLLRRLVTLISQQATLLASNEAFKKQAESASEAAKKYMEENDQLKKGAAVDGGKLDVGNAEVKLEEENRSLKADLQKLKDELASTKQKLEKAENEVLAMRKQSEGLTKEYDRLLEEHAKLQAAVDGPMDYKDDDDKAMDKKEE

binding result (32P-Bcl-2Δc21/his6/HMK [2]): binds
B7: GST-p28 (1-246) (other)
chain: MTLQWTAVATFLYAEVFVVLLLCIPFISPKRWQKIFKSRLVELLVSYGNTFFVVLIVILVLLVIDAVREIRKYDDVTEKVNLQNNPGAMEHFHMKLFRAQRNLYIAGFSLLLSFLLRRLVTLISQQATLLASNEAFKKQAESASEAAKKYMEENDQLKKGAAVDGGKLDVGNAEVKLEEENRSLKADLQKLKDELASTKQKLEKAENEVLAMRKQSEGLTKEYDRLLEEHAKLQAAVDGPMDKKEE
notes: Expressed in E. coli and purified on glutathione Sepharose; The thrombin-site linker of pGEX-2T is not described; also called GST-p28 Bap31; not shown: glutathione S-transferase encoded by pGEX-2T (Pharmacia)
